This is an account of results in patent publication US9492508B2, “Parathyroid hormone analogs and uses thereof” (The General Hospital Corporation, priority 2010, dated 2016).

For orientation: IC50 means the concentration needed to halve the response being measured. Low readings indicate greater potency in that assay, high ones weaker potency in that assay.

Square brackets hold non-standard residues; d marks the D form. Ends that are not written are not given here. hArg = N=C(N)NCCCC[C@H](N)C(=O)O; Aib = CC(C)(N)C(=O)O

Assay [1] concerns the target T1, human PTH-1 receptor (human, UniProt Q03431 27-593).
T1 construct: whole, on cells; also called human PTHR1; human PTH receptor
T1 sequence (looked up): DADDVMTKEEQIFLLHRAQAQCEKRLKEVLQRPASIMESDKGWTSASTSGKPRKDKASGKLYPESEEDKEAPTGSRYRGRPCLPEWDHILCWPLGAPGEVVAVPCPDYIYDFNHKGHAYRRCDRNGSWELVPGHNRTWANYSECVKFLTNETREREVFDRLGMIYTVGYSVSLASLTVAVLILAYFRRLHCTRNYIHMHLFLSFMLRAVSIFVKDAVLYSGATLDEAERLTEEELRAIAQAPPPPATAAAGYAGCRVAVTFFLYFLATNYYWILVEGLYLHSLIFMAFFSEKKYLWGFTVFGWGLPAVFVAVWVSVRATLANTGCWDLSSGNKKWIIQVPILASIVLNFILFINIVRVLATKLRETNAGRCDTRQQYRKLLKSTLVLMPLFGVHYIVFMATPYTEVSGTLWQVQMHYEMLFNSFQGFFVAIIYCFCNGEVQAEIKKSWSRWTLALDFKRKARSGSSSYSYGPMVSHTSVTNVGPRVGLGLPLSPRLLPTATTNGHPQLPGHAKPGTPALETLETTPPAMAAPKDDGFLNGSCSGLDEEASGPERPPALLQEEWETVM
Description: radioligand competition, human PTHR1 in COS-7 membranes, R0 conformation. The protocol:
(§1) Here, competition binding assays for the R⁰ and RG PTHR1 conformation were performed in membranes prepared from transfected COS-7 cells, as described by Dean et al., Mol Endocrinol 22:156-66, 2008. Data are means of three experiments, each performed in duplicate. Curves were fit to the data using Graph-Pad Prism 4.0.

Assay [2] deals with T2, rat PTH receptor (rat, UniProt P25961 27-591, limits assumed).
T2 construct: R0 and RG conformations assayed separately by the method of WO 2009/017809 or a similar one; also called rat PTHR1
T2 sequence (looked up): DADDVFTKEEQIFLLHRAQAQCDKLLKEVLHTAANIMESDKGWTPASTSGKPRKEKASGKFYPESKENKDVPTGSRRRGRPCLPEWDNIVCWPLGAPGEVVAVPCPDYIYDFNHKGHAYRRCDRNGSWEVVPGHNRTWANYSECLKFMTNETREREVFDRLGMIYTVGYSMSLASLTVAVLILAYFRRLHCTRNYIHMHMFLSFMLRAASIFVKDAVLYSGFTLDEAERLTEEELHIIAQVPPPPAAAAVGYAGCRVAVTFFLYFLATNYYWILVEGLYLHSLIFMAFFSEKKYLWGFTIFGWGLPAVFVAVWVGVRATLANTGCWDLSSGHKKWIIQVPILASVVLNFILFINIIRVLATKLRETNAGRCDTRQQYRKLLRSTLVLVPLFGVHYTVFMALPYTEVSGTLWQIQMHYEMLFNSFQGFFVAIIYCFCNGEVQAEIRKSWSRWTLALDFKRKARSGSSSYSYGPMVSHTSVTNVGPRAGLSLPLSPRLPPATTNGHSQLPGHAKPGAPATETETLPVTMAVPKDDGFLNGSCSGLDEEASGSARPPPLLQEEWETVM
Description: radioligand displacement, rat PTHR1, RG conformation. (In a radioligand displacement assay an active substance lowers the binding of a labelled ligand.)

Assay [3] concerns the target T1, human PTH-1 receptor. As to the kind of experiment: radioligand competition, human PTHR1 in COS-7 membranes, RG conformation. The protocol:
as §1

Assay [4] has as its target T2, rat PTH receptor. Description: radioligand displacement, rat PTHR1, R0 conformation.

B1: SP-PTH ([Ala1,3,12,Gln10,Arg11,Trp14]PTH(1-14)/PTHrP(15-36)) (peptide)
peptide: AVAEIQLMHQRAKWIQDLRRRFFLHHLIAEIHTAEI-OH
notes: Synthetic hybrid analog of human PTH(1-14) and human PTHrP(15-36); also called Super-potent PTH; Mc-PTH(1-14)/rP(15-36)OH
In the case of B1, the IC50 stood at 1400 pM with human PTH-1 receptor [1], 610 pM with rat PTH receptor [2], 480 pM in the assay with human PTH-1 receptor [3] and 1400 pM with rat PTH receptor [4].

B2: SP-PTH-AAK ([Ala1,3,12,18,22,Gln10,Arg11,Trp14,Lys26]PTH(1-14)/PTHrP(15-36)) (peptide)
peptide: AVAEIQLMHQRAKWIQDARRRAFLHKLIAEIHTAEI-OH
notes: Synthetic hybrid analog of human PTH(1-14) and human PTHrP(15-36); also called Mc-PTH(1-14)/AAK-rP(15-36)OH; SP-AAK
Regarding B2, the IC50 with human PTH-1 receptor [1] was 680 pM; with rat PTH receptor [2] it was 700 pM; with human PTH-1 receptor [3], 220 pM; with rat PTH receptor [4], 210 pM.

B3: Aib-SP-PTH ([Ala1,12,Aib3,Gln10,Har11,Trp14]PTH(1-14)/PTHrP(15-36)) (peptide)
peptide: AV[Aib]EIQLMHQ[hArg]AKWIQDLRRRFFLHHLIAEIHTAEI-NH2
modifications: N-terminus assumed
SMILES: CC[C@H](C)[C@H](NC(=O)[C@H](CCC(=O)O)NC(=O)[C@H](C)NC(=O)[C@@H](NC(=O)[C@H](Cc1c[nH]cn1)NC(=O)[C@@H](NC(=O)[C@H](CCC(=O)O)NC(=O)[C@H](C)NC(=O)[C@@H](NC(=O)[C@H](CC(C)C)NC(=O)[C@H](Cc1c[nH]cn1)NC(=O)[C@H](Cc1c[nH]cn1)NC(=O)[C@H](CC(C)C)NC(=O)[C@H](Cc1ccccc1)NC(=O)[C@H](Cc1ccccc1)NC(=O)[C@H](CCCNC(=N)N)NC(=O)[C@H](CCCNC(=N)N)NC(=O)[C@H](CCCNC(=N)N)NC(=O)[C@H](CC(C)C)NC(=O)[C@H](CC(=O)O)NC(=O)[C@H](CCC(N)=O)NC(=O)[C@@H](NC(=O)[C@H](Cc1c[nH]c2ccccc12)NC(=O)[C@H](CCCCN)NC(=O)[C@H](C)NC(=O)[C@H](CCCCNC(=N)N)NC(=O)[C@H](CCC(N)=O)NC(=O)[C@H](Cc1c[nH]cn1)NC(=O)[C@H](CCSC)NC(=O)[C@H](CC(C)C)NC(=O)[C@H](CCC(N)=O)NC(=O)[C@@H](NC(=O)[C@H](CCC(=O)O)NC(=O)C(C)(C)NC(=O)[C@@H](NC(=O)[C@H](C)N)C(C)C)[C@@H](C)CC)[C@@H](C)CC)[C@@H](C)CC)[C@@H](C)CC)[C@@H](C)O)C(N)=O
notes: Synthetic hybrid analog of human PTH(1-14) and human PTHrP(15-36); also called Super-potent Aib-PTH; M-PTH(1-14)/rP(15-36)NH2
For B3, the IC50 with human PTH-1 receptor [1] turned out to be 1800 pM; in the assay with human PTH-1 receptor [3], 690 pM; in the assay with rat PTH receptor [4], 930 pM.

B4: Aib-SP-PTH-AAK ([Ala1,12,18,22,Aib3,Gln10,Har11,Trp14,Lys26]PTH(1-14)/PTHrP(15-36)) (peptide)
peptide: AV[Aib]EIQLMHQ[hArg]AKWIQDARRRAFLHKLIAEIHTAEI-NH2
modifications: N-terminus assumed
SMILES: CC[C@H](C)[C@H](NC(=O)[C@H](CCC(=O)O)NC(=O)[C@H](C)NC(=O)[C@@H](NC(=O)[C@H](Cc1c[nH]cn1)NC(=O)[C@@H](NC(=O)[C@H](CCC(=O)O)NC(=O)[C@H](C)NC(=O)[C@@H](NC(=O)[C@H](CC(C)C)NC(=O)[C@H](CCCCN)NC(=O)[C@H](Cc1c[nH]cn1)NC(=O)[C@H](CC(C)C)NC(=O)[C@H](Cc1ccccc1)NC(=O)[C@H](C)NC(=O)[C@H](CCCNC(=N)N)NC(=O)[C@H](CCCNC(=N)N)NC(=O)[C@H](CCCNC(=N)N)NC(=O)[C@H](C)NC(=O)[C@H](CC(=O)O)NC(=O)[C@H](CCC(N)=O)NC(=O)[C@@H](NC(=O)[C@H](Cc1c[nH]c2ccccc12)NC(=O)[C@H](CCCCN)NC(=O)[C@H](C)NC(=O)[C@H](CCCCNC(=N)N)NC(=O)[C@H](CCC(N)=O)NC(=O)[C@H](Cc1c[nH]cn1)NC(=O)[C@H](CCSC)NC(=O)[C@H](CC(C)C)NC(=O)[C@H](CCC(N)=O)NC(=O)[C@@H](NC(=O)[C@H](CCC(=O)O)NC(=O)C(C)(C)NC(=O)[C@@H](NC(=O)[C@H](C)N)C(C)C)[C@@H](C)CC)[C@@H](C)CC)[C@@H](C)CC)[C@@H](C)CC)[C@@H](C)O)C(N)=O
notes: Synthetic hybrid analog of human PTH(1-14) and human PTHrP(15-36); also called Super-potent Aib-AAK PTH; M-PTH(1-14)AAK-/rP(15-36)NH2
On to B4, for which the IC50 with human PTH-1 receptor [1] was 940 pM; with rat PTH receptor [2], 450 pM; with human PTH-1 receptor [3] it was 370 pM.

B5: M-PTH(1-34) (peptide)
peptide: AV[Aib]EIQLMHQ[hArg]AKWLNSMRRVEWLRKKLQDVHNF-NH2
modifications: N-terminus assumed
SMILES: CC[C@H](C)[C@H](NC(=O)[C@H](CCC(=O)O)NC(=O)C(C)(C)NC(=O)[C@@H](NC(=O)[C@H](C)N)C(C)C)C(=O)N[C@@H](CCC(N)=O)C(=O)N[C@@H](CC(C)C)C(=O)N[C@@H](CCSC)C(=O)N[C@@H](Cc1c[nH]cn1)C(=O)N[C@@H](CCC(N)=O)C(=O)N[C@@H](CCCCNC(=N)N)C(=O)N[C@@H](C)C(=O)N[C@@H](CCCCN)C(=O)N[C@@H](Cc1c[nH]c2ccccc12)C(=O)N[C@@H](CC(C)C)C(=O)N[C@@H](CC(N)=O)C(=O)N[C@@H](CO)C(=O)N[C@@H](CCSC)C(=O)N[C@@H](CCCNC(=N)N)C(=O)N[C@@H](CCCNC(=N)N)C(=O)N[C@H](C(=O)N[C@@H](CCC(=O)O)C(=O)N[C@@H](Cc1c[nH]c2ccccc12)C(=O)N[C@@H](CC(C)C)C(=O)N[C@@H](CCCNC(=N)N)C(=O)N[C@@H](CCCCN)C(=O)N[C@@H](CCCCN)C(=O)N[C@@H](CC(C)C)C(=O)N[C@@H](CCC(N)=O)C(=O)N[C@@H](CC(=O)O)C(=O)N[C@H](C(=O)N[C@@H](Cc1c[nH]cn1)C(=O)N[C@@H](CC(N)=O)C(=O)N[C@@H](Cc1ccccc1)C(N)=O)C(C)C)C(C)C
notes: M residues: Ala1,12, Aib3, Gln10, homoArg11, Trp14, Arg19; also called M-PTH(1-34).NH2; MGH# 1577
As to B5, the IC50 with human PTH-1 receptor [1] worked out at 950 pM; with rat PTH receptor [2] it was 900 pM; in the assay with human PTH-1 receptor [3] it was 450 pM; in the assay with rat PTH receptor [4] it was 1500 pM.
